The results in this text go back to paper PMC3529917 (2012).

This assay deals with complement C1q (Homo sapiens, UniProt P02745, C1q succinimidyl alkyne-labeled, Fz8 CRD IgG/Fc fusion). Put plainly: pull-down with ELISA quantification, Scatchard. Background: In an ELISA, binding on a coated surface is turned into a signal by an enzyme label.

B1: Frizzled-8 (Fz8/Fc) CRD (protein)
chain: AKELACQEITVPLCKGIGYNYTYMPNQFNHDTQDEAGLEVHQFWPLVEIQCSPDLKFFLCSMYTPICLEDYKKPLPPCRSVCERAKAGCAPLMRQYGFAWPDRMRCDRLPEQGNPDTLCMDY
The molecule B1 showed a Kd of 2.8 nM.

In general, Kd refers to the free concentration of one partner at which half of the binding sites on the other are occupied at equilibrium, for simple one-to-one binding.
